Reference: patent US20120114590A1 (priority 2005, published 2012)

Assays:
[1] = system: mouse B cells; assay: 3H-thymidine incorporation by mouse B cells; format: cell-based; settings: 72 hrs culture
Method: Mouse B cells were isolated from 2 Balb/C spleens (7 months old) by depleting CD43+ cells using MACS magnetic beads. Purified B cells were cultured in vitro with LPS, anti-IgM or anti-CD40 monoclonal antibodies. Mouse IL-28 or mouse IFNα was added to the cultures and ^3H-thymidine was added at 48 hrs. and ^3H-thymidine incorporation was measured after 72 hrs. culture.

[2] = system: 293 HEK cells overexpressing zcytor19; assay: Inhibition of ligand-induced ISRE-luciferase signaling by soluble receptors; format: cell-based, human; settings: 10 ng/ml ligand, 10 micrograms/ml soluble receptor, 4-hour; relative to PBS alone
[3] = system: AML-12 cells; assay: ISG induction in the mouse liver cell line AML-12 (real-time PCR); format: cell-based; settings: AML-12, 20 ng/ml, 48 hour time point; mRNA relative to HPRT gene expression
Method: AML-12 cells were plated in 6-well plates in complete DMEM media at a concentration of 2×10^6 cells/well. […] As a control, cells were either stimulated with mouse IFNα (positive control) or unstimulated (negative). […] RNA was isolated from cell pellets using RNAEasy-kit® (Qiagen, Valencia, Calif.). RNA was treated with DNase (Millipore, Billerica, Mass.) to clean RNA of any contaminating DNA. cDNA was generated using Perkin-Elmer RT mix. ISG gene induction was evaluated by real-time PCR using primers and probes specific for mouse OAS, Pkr and Mx1. To obtain quantitative data, HPRT real-time PCR was duplexed with ISG PCR. A standard curve was obtained using known amounts of RNA from IFN-stimulated mouse PBLs. All data are shown as expression relative to internal HPRT expression.

[4] = system: ISRE signaling in HepG2 cells; settings: 100 ng/ml ligand, 4-hour incubation; RLU over medium alone
[5] = system: adenoviral vector AdGFP; assay: Adenoviral vector (AdGFP) liver pathology model in C57Bl/6 mice; settings: AdGFP-infected C57Bl/6 mice, 50 μg i.p., 7 doses

B1: Zcyto24: mouse IL-28A (zcyto24), SEQ ID NO:8 (protein, listed as Mus musculus)
chain: MKPETAGGHMLLLLLPLLLAAVLTRTQADPVPRATRLPVEAKDCHIAQFKSLSPKELQAFKKAKDAIEKRLLEKDLRCSSHLFPRAWDLKQLQVQERPKALQAEVALTLKVWENMTDSALATILGQPLHTLSHIHSQLQTCTQLQATAEPRSPSRRLSRWLHRLQEAQSKETPGCLEASVTSNLFRLLTRDLKCVANGDQCV
With B1 the “3H thymidine incorporation by mouse B cells stimulated with anti-CD40 MAb” value [1] was “increased”, the “3H-thymidine incorporation by mouse B cells stimulated with LPS or anti-IgM” value ([1]; IFNα at 10 ng/ml, mouse IL-28 any concentration tested including 1000 ng/ml) was “did not inhibit” and the “Percent Inhibition of Ligand-induced ISRE Signaling by HuCRF2-4-Fc” value [2] was 82%. For the same molecule, the “Percent Inhibition of Ligand-induced ISRE Signaling by Huzcytor19-Fc” value [2] was 90%, the “Percent Inhibition of Ligand-induced ISRE Signaling by Huzcytor19-Fc/huCRF2-4-Fc” value [2] was 47% and the “Percent Inhibition of Ligand-induced ISRE Signaling by Muzcytor19-Ig” value [2] was 89%. It also gave a Mx1 [3] of 0.08, an OAS [3] of 0.04 and a PkR [3] of 0.02. The “Fold Induction of Cytokine-dependent ISRE Signaling in HepG2 Cells” value [4] was 4.7 fold, the “liver histology: liver and inflammation scores versus PBS-treated group” value [5] was “lower liver and inflammation scores” and the “average serum AST” value ([5]; n=8) was 193 U/L. The relative liver fluorescence ([5]; n=8) was 34.5 arbitrary units and the “serum ALT” value ([5]; n=8) was 216 U/L.
